The target in this assay is T1, SCRIB PDZ3 K1040A (human, UniProt Q14160 1002-1094, K1040A).
T1 sequence: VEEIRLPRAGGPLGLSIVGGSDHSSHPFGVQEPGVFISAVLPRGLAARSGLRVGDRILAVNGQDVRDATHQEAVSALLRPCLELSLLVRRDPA
Nature of the assay: ITC. The conditions noted are these: both partners purified.

Take LRLESSII [TBEV NS5_CTN peptide (C-terminal PBM of NS5)]: binding was characterised by a dissociation constant (Kd) of 12.5 µM, the dH was -6.7 kcal/mol and the “stoichiometry N” value amounted to 0.9.

As a reminder, the Kd is the constant that tells how readily two partners part at equilibrium. A lower Kd goes with tighter binding. As a reminder, the stoichiometry N is the number of molecules, sites or subunits per partner or assembly.

The values above are taken from article PMC9317960 (Biochemical Journal, 2022).
